These results are taken from patent publication US20240317847A1 (Bayer, published 2024).

A word on the Kd: it is the free concentration of one partner at which half of the binding sites on the other are occupied at equilibrium, for simple one-to-one binding. Low values mean a tighter complex, high ones a looser complex.

Changes are numbered by the printed parent chain.

The target in experiment [1] is T1, human IL-11 (human, UniProt P20809 22-199).
T1 construct: bought from Invigate; also called hIL-11; hIL11
T1 sequence: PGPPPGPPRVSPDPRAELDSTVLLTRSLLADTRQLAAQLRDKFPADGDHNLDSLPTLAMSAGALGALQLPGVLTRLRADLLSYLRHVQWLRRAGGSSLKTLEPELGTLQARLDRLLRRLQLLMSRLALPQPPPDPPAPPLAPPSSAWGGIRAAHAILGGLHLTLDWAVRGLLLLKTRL
Nature of the experiment: SPR, antibody captured, IL-11 as analyte. How it is done: (§1) Antibodies were captured via anti-mouse Fc IgGs (“Mouse antibody capture kit, Order No. BR100383, Cytiva) covalently amine coupled to a Series S CM5 sensor chip (Cytiva). The amine coupling was carried out according to the manufacturer's instructions using 1-ethyl-3-(3-dimethylaminopropyl) carbodiimide hydrochloride (EDC), N-hydroxysuccinimide (NHS) and ethanolamine HCl, pH 8.5 (“Amine Coupling Kit” BR-1000-50, Cytiva.). Human IL-11 (Invigate, e.g., lot #C121021-19), and murine IL-11 (Invigate, e.g., lot #C210819-09) were used as analytes. […] Based on that experiment an IL-11 concentration range was chosen to optimally determine kinetics and affinity of anti-IL-11 antibodies in multicycle kinetics mode. The sensor surface was regenerated with glycine pH 1.7 after each antigen injection. Obtained sensorgrams were double referenced (subtraction of reference flow cell signal and buffer injection) and were fitted to a 1:1 Langmuir binding model to derive kinetic data using the Biacore T200 Evaluation software or the Biacore Insight software.
(§2) 42 hits from the IL-11 and […] screening analysis were selected, expressed by transient transfection of mammalian cells and purified as described in Example 15. Antibodies were then tested for human IL-11 and murine IL-11 binding by SPR as described in Example 16.

The target of experiment [2] is T2, murine IL-11 (mouse, UniProt P47873 22-199).
T2 construct: bought from Invigate; also called mIL-11; mIL11
T2 sequence: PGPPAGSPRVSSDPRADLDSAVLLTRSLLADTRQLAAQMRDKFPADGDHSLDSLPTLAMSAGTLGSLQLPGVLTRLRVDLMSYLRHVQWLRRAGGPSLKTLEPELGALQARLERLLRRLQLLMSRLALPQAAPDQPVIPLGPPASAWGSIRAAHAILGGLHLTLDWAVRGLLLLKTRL
Put plainly: SPR, antibody captured, IL-11 as analyte. How it is done: as §1, §2
In general terms: In SPR one partner is held on a chip, and binding of the other changes the refractive index at the surface.

B1: TPP-26303 (antibody, V domains shown)
VH: EVQLLESGGGLVQPGGSLRLSCAASGFTFSSYGMHWVRQAPGKGLEWVSVISYDGSYKYYADSVKGRFTISRDNSKNTLYLQMNSLRAEDTAVYYCAAGVPDYWGQGTLVTVSS
VL: QSVLTQPPSASGTPGQRVTISCTGSSSNIGAGYDVHWYQQLPGTAPKLLIYSNNERPEGVPDRFSGSKSGTSASLAISGLRSEDEADYYCAAWDDSLNGPVFGGGTKLTVL
notes: constant regions not restated
Regarding B1, the Kd came to 13 nM in experiment [1] and 0.65 nM in experiment [2].

B2: TPP-26331 (antibody, V domains shown)
VH: B1 VH with M34G
VL: B1 VL with E58S
notes: constant regions not restated
In the case of B2, the dissociation constant (Kd) in experiment [1] was found to be 15 nM; in experiment [2], 0.95 nM.

B3: TPP-26304 (antibody, V domains shown)
VH: B1 VH
VL: B1 VL with G30W, E58S
notes: constant regions not restated
With B3, the Kd in experiment [1] came out at 12 nM; in experiment [2], 0.64 nM.

B4: TPP-26315 (antibody, V domains shown)
VH: B1 VH
VL: B1 VL with G32H, E58S
notes: constant regions not restated
As for B4, the Kd in experiment [1] was 14 nM; in experiment [2] it was 0.95 nM.

B5: TPP-26330 (antibody, V domains shown)
VH: B1 VH with S31F
VL: B1 VL with E58S
notes: constant regions not restated
As to B5, the Kd in experiment [1] is 9.5 nM; in experiment [2] it was 1.7 nM.

B6: TPP-26319 (antibody, V domains shown)
VH: B1 VH
VL: B1 VL with R56K, E58S
notes: constant regions not restated
As to B6, the Kd in experiment [1] is 12 nM; in experiment [2] it was 1.4 nM.

B7: TPP-26317 (antibody, V domains shown)
VH: B1 VH
VL: B1 VL with G32E, E58S
notes: constant regions not restated
With B7, the results for the Kd in experiment [1] and in experiment [2] were 8.1 nM and 0.9 nM, respectively.

B8: TPP-26323 (antibody, V domains shown)
VH: B1 VH
VL: B1 VL with E58S, D95G
notes: constant regions not restated
For the molecule B8, the dissociation constant (Kd) in experiment [1] was 10 nM; in experiment [2], 0.58 nM.

B9: TPP-26324 (antibody, V domains shown)
VH: B1 VH with A61R
VL: B1 VL with E58S
notes: constant regions not restated
B9: the values for the Kd in experiment [1] and in experiment [2] were 13 nM and 1.2 nM, respectively.

B10: TPP-26310 (antibody, V domains shown)
VH: B1 VH
VL: B1 VL with E58W
notes: constant regions not restated
Regarding B10, the results for the dissociation constant Kd in experiment [1] and in experiment [2] were 13 nM and 0.66 nM, respectively.

B11: TPP-26321 (antibody, V domains shown)
VH: B1 VH
VL: B1 VL with E58S, D95L
notes: constant regions not restated
Take B11: the Kd turned out to be 9.3 nM in experiment [1] and 0.94 nM in experiment [2].

B12: TPP-26306 (antibody, V domains shown)
VH: B1 VH
VL: B1 VL with E58S, D95Q
notes: constant regions not restated
For B12, the Kd in experiment [1] came out at 12 nM; in experiment [2], 0.65 nM.

B13: TPP-26328 (antibody, V domains shown)
VH: B1 VH with G99T
VL: B1 VL with E58S
notes: constant regions not restated
On to B13, for which the Kd came out at 12 nM in experiment [1] and 1.3 nM in experiment [2].

B14: TPP-26309 (antibody, V domains shown)
VH: B1 VH
VL: B1 VL with E58S, D95F
notes: constant regions not restated
B14: the Kd in experiment [1] worked out at 8.2 nM; in experiment [2], 0.8 nM.

B15: TPP-26325 (antibody, V domains shown)
VH: B1 VH with S31W
VL: B1 VL with E58S
notes: constant regions not restated
The molecule B15 returned a Kd in experiment [1] of 6.4 nM. Besides, the binding result in experiment [2] was “no binding”.

B16: TPP-26313 (antibody, V domains shown)
VH: B1 VH
VL: B1 VL with G32Y, E58S
notes: constant regions not restated
Take B16: the equilibrium dissociation constant (Kd) in experiment [1] stood at 9.1 nM; in experiment [2], 0.46 nM.

B17: TPP-26320 (antibody, V domains shown)
VH: B1 VH
VL: B1 VL with N54E, E58S
notes: constant regions not restated
As to B17, the Kd in experiment [1] was 13 nM; in experiment [2], 0.83 nM.

B18: TPP-26318 (antibody, V domains shown)
VH: B1 VH
VL: B1 VL with D34F, E58S
notes: constant regions not restated
For the molecule B18, the values for the Kd in experiment [1] and in experiment [2] were 14 nM and 8.1 nM, respectively.

B19: TPP-26314 (antibody, V domains shown)
VH: B1 VH
VL: B1 VL with E58S, D95W
notes: constant regions not restated
As to B19, the dissociation constant Kd in experiment [1] came out at 8.3 nM; in experiment [2], 0.56 nM.

B20: TPP-26308 (antibody, V domains shown)
VH: B1 VH
VL: B1 VL with E58S, D95V
notes: constant regions not restated
For the molecule B20, the Kd in experiment [1] is 17 nM; in experiment [2], 1.3 nM.

B21: TPP-26316 (antibody, V domains shown)
VH: B1 VH
VL: B1 VL with E58S, D95M
notes: constant regions not restated
Take B21: the Kd in experiment [1] stood at 8.4 nM; in experiment [2], 0.72 nM.

B22: TPP-26312 (antibody, V domains shown)
VH: B1 VH
VL: B1 VL with Y33L, E58S
notes: constant regions not restated
In the case of B22, the dissociation constant (Kd) in experiment [1] was 10 nM; in experiment [2], 0.8 nM.

B23: TPP-26329 (antibody, V domains shown)
VH: B1 VH with Y32W
VL: B1 VL with E58S
notes: constant regions not restated
As to B23, the dissociation constant Kd was 14 nM in experiment [1] and 0.92 nM in experiment [2].

B24: TPP-26326 (antibody, V domains shown)
VH: B1 VH with S31Y
VL: B1 VL with E58S
notes: constant regions not restated
For the molecule B24, the figures for the Kd in experiment [1] and in experiment [2] were 9.3 nM and 1.2 nM, respectively.

B25: TPP-26307 (antibody, V domains shown)
VH: B1 VH
VL: B1 VL with E58S, D95I
notes: constant regions not restated
As for B25, the Kd in experiment [1] was found to be 16 nM; in experiment [2], 1.6 nM.

B26: TPP-18068 (antibody, mouse IgG1)
heavy: EVQLLESGGGLVQPGGSLRLSCAASGFTFSSYGMHWVRQAPGKGLEWVSVISYDGSYKYYADSVKGRFTISRDNSKNTLYLQMNSLRAEDTAVYYCAAGVPDYWGQGTLVTVSSAKTTPPSVYPLAPGSAAQTNSMVTLGCLVKGYFPEPVTVTWNSGSLSSGVHTFPAVLQSDLYTLSSSVTVPSSTWPSETVTCNVAHPASSTKVDKKIVPRDCGCKPCICTVPEVSSVFIFPPKPKDVLTITLTPKVTCVVVDISKDDPEVQFSWFVDDVEVHTAQTQPREEQFNSTFRSVSELPIMHQDWLNGKEFKCRVNSAAFPAPIEKTISKTKGRPKAPQVYTIPPPKEQMAKDKVSLTCMITDFFPEDITVEWQWNGQPAENYKNTQPIMDTDGSYFVYSKLNVQKSNWEAGNTFTCSVLHEGLHNHHTEKSLSHSPGK
light: QSVLTQPPSASGTPGQRVTISCTGSSSNIGAGYDVHWYQQLPGTAPKLLIYSNNERPSGVPDRFSGSKSGTSASLAISGLRSEDEADYYCAAWDDSLNGPVFGGGTKLTVLGQPKSSPSVTLFPPSSEELETNKATLVCTITDFYPGVVTVDWKVDGTPVTQGMETTQPSKQSNNKYMASSYLTLTARAWERHSSYSCQVTHEGHTVEKSLSRADCS
notes: mIgG1, Lambda; also called WT; parent clone
As to B26, the Kd in experiment [1] is 12 nM; in experiment [2] it was 0.86 nM.
